For experiment [1], the target named is wild-type Grb2 (growth factor receptor-bound protein 2), bacterially expressed and purified (UniProt P62993). Kind of experiment: MST; monomer–dimer equilibrium of Grb2 in the presence of the SOS1 peptide (…); apparent Kd, dimer to monomers.
The target is the same in experiment [2]. As to the kind of experiment: MST; unlabelled Grb2 (7.3 nM to about 30 μM) titrated into 100 nM Atto488-labelled Grb2; 20 °C; PBS without calcium and magnesium, 0.01% Tween 20; apparent Kd, dimer to monomers.

On to “wild-type Grb2 (growth factor receptor-bound protein 2), bacterially expressed and purified (from UniProt P62993 1-217) (natural protein)”, for which the Kd came to 700 nM in experiment [1] and 760 nM in experiment [2].
